Assay results: US20240093191A1, “COMPOSITIONS AND METHODS FOR TREATING DISEASE ASSOCIATED WITH DUX4 OVEREXPRESSION” (RESEARCH INSTITUTE AT NATIONWIDE CHILDREN'S HOSPITAL, priority 2021, published 2024)

B1: U6.mi405F: mi405 with one G at 5' end and 16 mer 3' flanking sequence with single CNNC motif (nucleic acid)
DNA: ACGCCGCCATCTCTAGGCCCGCGCCGGCCCCCTCGCACAGACTTGTGGGAGAAGCTCGGCTACTCCCCTGCCCCGGTTAATTTGCATATAATATTTCCTAGTAACTATAGAGGCTTAATGTGCGATAAAAGACAGATAATCTGTTCTTTTTAATACTAGCTACATTTTACATGATAGGCTTGGATTTCTATAAGAGATACAAATACTAAATTATTATTTTAAAAAACAGCACAAAAGGAAACTCACCCTAACTGTAAAGTAATTGTGTGTTTTGAGACTATAAATATCCCTTGGAGAAAAGCCTTGTTTGCTCGAGTGAGCGATCCAGGATTCAGATCTGGTTTCTGTAAAGCCACAGATGGGAAACCAGATCTGAATCCTGGACTGCCTACTAGTAATTCTTCGATTCTGCTTTTTT
B2: U6.mi405G: mi405 construct with altered flanking sequences (nucleic acid)
DNA: ACGCCGCCATCTCTAGGCCCGCGCCGGCCCCCTCGCACAGACTTGTGGGAGAAGCTCGGCTACTCCCCTGCCCCGGTTAATTTGCATATAATATTTCCTAGTAACTATAGAGGCTTAATGTGCGATAAAAGACAGATAATCTGTTCTTTTTAATACTAGCTACATTTTACATGATAGGCTTGGATTTCTATAAGAGATACAAATACTAAATTATTATTTTAAAAAACAGCACAAAAGGAAACTCACCCTAACTGTAAAGTAATTGTGTGTTTTGAGACTATAAATATCCCTTGGAGAAAAGCCTTGTTTGACCGTTTAAACTCGAGTGAGCGATCCAGGATTCAGATCTGGTTTCTGTAAAGCCACAGATGGGAAACCAGATCTGAATCCTGGACTGCCTACTAGAGAATTCTTCGATTCTGCTTTTTT
B3: H1.mir-675: commercially available H1 promoter mir-675 expression plasmid (SBI Biosciences) (nucleic acid)
DNA: GAACGCTGACGTCATCAACCCGCTCCAAGGAATCGCGGGCCCAGTGTCACTAGGCGGGAACACCCAGCGCGCGTGCGCCCTGGCAGGAAGATGGCTGTGAGGGACAGGGGAGTGGCGCCCTGCAATATTTGCATGTCGCTATGTGTTCTGGGAAATCACCATAAACGTGAAATGTCTTTGGATTTGGGAATCTTATAAGTTCTGTATGAGACCACCCCCCAGGGTCTGGTGCGGAGAGGGCCCACAGTGGACTTGGTGACGCTGTATGCCCTCACCGCTCAGCCCCTGGGGAATTCTTCGATTCTGCTTTTTT
B4: U6.mir-675: U6 promoter-driven mir-675 expression plasmid with 40 nt 5' and 47 nt 3' flanking sequences (nucleic acid)
DNA: GACGCCGCCATCTCTAGGCCCGCGCCGGCCCCCTCGCACAGACTTGTGGGAGAAGCTCGGCTACTCCCCTGCCCCGGTTAATTTGCATATAATATTTCCTAGTAACTATAGAGGCTTAATGTGCGATAAAAGACAGATAATCTGTTCTTTTTAATACTAGCTACATTTTACATGATAGGCTTGGATTTCTATAAGAGATACAAATACTAAATTATTATTTTAAAAAACAGCACAAAAGGAAACTCACCCTAACTGTAAAGTAATTGTGTGTTTTGAGACTATAAATATCCCTTGGAGAAAAGCCTTGTTTGCGTTTAGTGAACCGTCAGATGGTACCGTTTAAACTCGAGCCCAGGGTCTGGTGCGGAGAGGGCCCACAGTGGACTTGGTGACGCTGTATGCCCTCACCGCTCAGCCCCTGGGACTAGAGCGGCCGCCACAGCGGGGAGATCCAGACATGATAAGATACATTTTTT
B5: U6.mi405H: mi405 construct with altered flanking sequences (nucleic acid)
DNA: ACGCCGCCATCTCTAGGCCCGCGCCGGCCCCCTCGCACAGACTTGTGGGAGAAGCTCGGCTACTCCCCTGCCCCGGTTAATTTGCATATAATATTTCCTAGTAACTATAGAGGCTTAATGTGCGATAAAAGACAGATAATCTGTTCTTTTTAATACTAGCTACATTTTACATGATAGGCTTGGATTTCTATAAGAGATACAAATACTAAATTATTATTTTAAAAAACAGCACAAAAGGAAACTCACCCTAACTGTAAAGTAATTGTGTGTTTTGAGACTATAAATATCCCTTGGAGAAAAGCCTTGTTTGACCGTTTAAACTCGAGTGAGCGATCCAGGATTCAGATCTGGTTTCTGTAAAGCCACAGATGGGAAACCAGATCTGAATCCTGGACTGCCTACTAGAGCGCACGCCAGTTTTTT

Key:
DUX4 protein = test: Western blot of V5-tagged DUX4 protein in co-transfected HEK293 cells; assay type: cell-based, human; conditions: for reduction of DUX4 protein levels / reduction of DUX4 protein levels compared to U6.miGFP / reduction of DUX4 protein levels relative to U6.mi405 / reduction of DUX4 protein levels compared to U6.mi405F / Average inhibition efficiency (%) of DUX4 protein levels: HEK293; for reduction of DUX4 protein levels compared to U6.miGFP: DUX4:mi405 molar ratio 2 to 1; for reduction of DUX4 protein levels relative to U6.mi405 / reduction of DUX4 protein levels compared to U6.mi405F: molar ratio 12 to 1, N=4; for Average inhibition efficiency (%) of DUX4 protein levels: CMV.DUX4-FL/CMV.eGFP, molar ratio 1 to 3, eGFP normalizer, relative to U6-milacZ, N = 3-8; for effect on DUX4 protein level (DUX4-FL WT): FIG. 18, HEK293 western blot
[1] = system: DUX4 ORF (RenLuc-DUX4 ORF); test: Dual-luciferase assay, RenLuc-DUX4 ORF reporter co-transfected with miDUX4 plasmids in HEK293 cells; assay type: cell-based, human; conditions: for reduction of Renilla luciferase activity: normalized to U6.miGFP
How it was run: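 HEK293 cells were co-transfected by lipofection with a psiCheck2 reporter carrying the DUX4 ORF as the Renilla luciferase 3′UTR and U6-driven miDUX4 plasmids, at increasing reporter:miRNA molar ratios. Renilla/Firefly ratio was read 24 h or 48 h post-transfection, with Firefly as transfection normaliser. Values are means ± SEM of triplicates over 3 experiments.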

[2] = DUX4:mi405 molar ratio 2 to 1, HEK293, 24 h
[3] = DUX4:mi405 molar ratio 12 to 1, HEK293, 24 h

Molecule	reduction of DUX4 protein levels compared to U6.miGFP (DUX4 protein; 24 h) [%]	reduction of DUX4 protein levels relative to U6.mi405 (DUX4 protein; 24 h) [%]	reduction of Renilla luciferase activity [1, 2] [%]	reduction of Renilla luciferase activity [1, 3] [%]	reduction of DUX4 protein levels compared to U6.mi405F (DUX4 protein; 24 h) [%]	additional reduction of Renilla luciferase activity compared to U6.mi405F ([1]; DUX4:mi405 molar ratio 12 to 1) [%]	Average inhibition efficiency (%) of DUX4 protein levels (DUX4 protein)	effect on DUX4 protein level (DUX4-FL WT) (DUX4 protein)	other results
B1	81±9	40±5	77±1	45±4					increase of inhibition efficiency compared to U6.mi405 (western blot) (DUX4 protein; 1:4 DUX4:mi405 molar ratio, 24 h): 20%; reduction of DUX4 protein levels (DUX4 protein; 1:4 DUX4:mi405 molar ratio, 24 h, normalized to miGFP, N=2): 99±1%; reduction of relative Renilla luciferase activity ([1]; 1:4 DUX4:mi405 molar ratio, HEK293, 24 h, normalized to miGFP): 89±1%; decrease of relative Renilla luciferase activity compared to U6.mi405 ([1]; DUX4:mi405 molar ratio 8:1, 24 h): 48±6%; decrease of relative Renilla luciferase activity compared to U6.mi405 ([1]; DUX4:miDUX4 molar ratio 1:1): 33±2%; decrease of relative Renilla luciferase activity compared to U6.mi405 ([1]; DUX4:miDUX4 molar ratio 1:2): 32±2%; decrease of relative Renilla luciferase activity compared to U6.mi405 ([1]; DUX4:miDUX4 molar ratio 1:3): 34±1%; decrease of relative Renilla luciferase activity compared to U6.mi405 ([1]; DUX4:miDUX4 molar ratio 1:4): 32±1%; relative Renilla luciferase activity reached ([1]; DUX4:miDUX4 molar ratio 8:1): 38±2%; more efficient than U6.mi405 in reducing relative Renilla luciferase activity ([1]; DUX4:miDUX4 molar ratio 40:1): 13±2%
B2	88±2	71±5	81±1	59±2	52±9	26±5			
B3							68 ± 5 (N = 4) %	reduce DUX4 protein level	
B4							43±4%	reduce DUX4 protein level	reduction of DUX4 protein levels (DUX4 protein; AAV.CMV.DUX4-FL co-transfection, 24 h, β-actin normalizer, relative to U6.milacZ): 46±11%
B5	79±6	60±8	80±1	58±2	33±14	25±6			
